Experimental data from patent US20140186363A1 (UNIVERSITY OF ZURICH, published 2014).

B1: 102G10 (antibody, V domains shown)
VH: EVQLVESGGGLVKPGGSLRLSCAASGFTFSGNSMNWVRQAPGKGLEWVSSISSSSGYIYYADSVKGRFTVSRDNAKNSLYLQMNSLRAEDTAVYYCATWPVTTARVGYWGQGTLVTVSS
VL: QSVLTQPPSASGTPGQRVTISCSGSSSNIGSNYVYWHQQLPGTAPKLLIYRHDQRPSGVPDRFSGSKSGTSASLAISGLRSEDEADYYCAAWDDSLSAWVFGGGTKLTVL
notes: Patient-derived human antibody made recombinantly; also called human monoclonal antibody 102G10
B2: 34G9 (antibody, V domains shown)
VH: EVQLEESGGDLVQPGGSLRLSCAASGFTFSHYWMHWVRQAPGKGLVWVSRINSDGSSTSYADSVKGRFTISRDNAKNTLYLQMNSLRAEDTAVYYCARIGSDGYNYDFWGQGTLVTVSS
VL: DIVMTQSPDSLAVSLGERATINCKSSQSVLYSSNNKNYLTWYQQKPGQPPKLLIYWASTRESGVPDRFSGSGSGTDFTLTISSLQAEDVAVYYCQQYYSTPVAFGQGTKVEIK
notes: Patient-derived human antibody made recombinantly; also called human monoclonal antibody 34G9
B3: 32H2 (antibody, V domains shown)
VH: QVQLVESGGGVVQPGRSLRLSCAASGFTFSSNAMHWVRQAPGKGLEWVAVISHDGSNKYYADSVKGRFTISRDNSKNTLYLQMNSLRAEDTAVYYCARDGSGSYFNLDYWGQGTLVTVSS
VL: QSALTQPASVSGSPGQSITISCTGTSSDVGGYNYVSWYQQHPGKAPKLMIYEVSNRPSGVSNRFSGSKSGNTASLTISGLQAEDEADYYCSSYTSSSTLVFGTGTKVTVL
notes: Patient-derived human antibody made recombinantly; also called human monoclonal antibody 32H2

Legend:
MAGEA4 = molecular target: T1, MAGEA4 (UniProt P43358 1-317, limits assumed); experiment: Western blot of recombinant protein, anti-human IgG-HRP
T1 construct: also called recombinant MAGEA4-protein; CT1.4
T1 sequence (looked up): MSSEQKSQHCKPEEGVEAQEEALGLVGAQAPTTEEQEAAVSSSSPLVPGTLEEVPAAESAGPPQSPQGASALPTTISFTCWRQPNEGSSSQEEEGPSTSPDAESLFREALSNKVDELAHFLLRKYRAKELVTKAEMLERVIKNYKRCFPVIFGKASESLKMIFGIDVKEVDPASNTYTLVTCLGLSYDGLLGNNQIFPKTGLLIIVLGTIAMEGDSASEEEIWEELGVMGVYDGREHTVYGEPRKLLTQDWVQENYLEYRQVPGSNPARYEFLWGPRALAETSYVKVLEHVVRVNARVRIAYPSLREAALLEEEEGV
Experimental: Recombinant MAGEA3- and recombinant MAGEA4-protein were separated in SDS-PAGE and blotted onto membranes. Membranes were incubated with human antibodies 122G3 or 32H2. Binding of human antibodies to proteins on the membrane was evaluated using an HRP-labeled goat anti human IgG (Jackson Immunoresearch, Milan Analytica AG, Rheinfelden, Switzerland). The results are depicted in FIG. 3.

MAGEA3 peptide no 13 = molecular target: T2, MAGEA3 peptide no 13; experiment: peptide ELISA (coated 20mer) [Figure 1]
T2 construct: also called MAGEA3 aa 121-140
T2 peptide: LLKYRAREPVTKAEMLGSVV
Experimental: (§1) 20mer peptides spanning the entire MAGEA3 protein with 10 aa overlaps shared by each adjacent peptide (Peptides&Elephants, Nuthetal, Germany) were used to coat Maxisorp ELISA plates (Nunc, Rochester, N.Y.). As control a 20mer peptide representing amino acids 40-21 from the NY-ESO-1 protein was used (rev). The numbering of amino acids of MAGEA3 is based on SEQ ID No:41.
(§2) Human recombinant antibody was used at a concentration of 1 μg/ml. Bound human antibody was detected using horseradish peroxidase-conjugated goat anti-human IgG Fc-gamma specific antibodies (Jackson ImmunoResearch, Europe Ltd., Cambridgeshire, UK).

MAGEA3 peptide no 25 = molecular target: T3, MAGEA3 peptide no 25; experiment: peptide ELISA (coated 20mer) [Figure 1]
T3 construct: also called MAGEA3 aa 241-260
T3 peptide: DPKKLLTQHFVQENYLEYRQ
Experimental: as §1, §2

MAGEA3 peptide no 31 = molecular target: T4, MAGEA3 peptide no 31; experiment: peptide ELISA (coated 20mer) [Figure 1]
T4 construct: also called MAGEA3 aa 295-314
T4 peptide: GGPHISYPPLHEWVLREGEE
Experimental: as §1, §2

MAGEA3 peptide no 24 = molecular target: T5, MAGEA3 peptide no 24; experiment: peptide ELISA (coated 20mer) [Figure 1]
T5 construct: also called MAGEA3 aa 231-250
T5 peptide: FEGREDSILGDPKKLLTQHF
Experimental: as §1, §2

MAGEA3 peptide no 3 = molecular target: T6, MAGEA3 peptide no 3; experiment: peptide ELISA (coated 20mer) [Figure 1]
T6 construct: also called MAGEA3 aa 21-40
T6 peptide: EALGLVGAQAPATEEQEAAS
Experimental: as §1, §2

MAGEA3 peptide no 22 = molecular target: T7, MAGEA3 peptide no 22; experiment: peptide ELISA (coated 20mer) [Figure 1]
T7 construct: also called MAGEA3 aa 211-230
T7 peptide: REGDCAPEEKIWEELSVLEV
Experimental: as §1, §2

MAGEA3 peptide no 1 = molecular target: T8, MAGEA3 peptide no 1; experiment: peptide ELISA (coated 20mer) [Figure 1]
T8 construct: also called MAGEA3 aa 1-20
T8 peptide: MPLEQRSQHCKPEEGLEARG
Experimental: as §1, §2

MAGEA3 peptide no 26 = molecular target: T9, MAGEA3 peptide no 26; experiment: peptide ELISA (coated 20mer) [Figure 1]
T9 construct: also called MAGEA3 aa 251-270
T9 peptide: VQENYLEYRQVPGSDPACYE
Experimental: as §1, §2

MAGEA3 peptide no 30 = molecular target: T10, MAGEA3 peptide no 30; experiment: peptide ELISA (coated 20mer) [Figure 1]
T10 construct: also called MAGEA3 aa 291-310
T10 peptide: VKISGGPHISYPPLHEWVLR
Experimental: as §1, §2

MAGEA3 peptide no 18 = molecular target: T11, MAGEA3 peptide no 18; experiment: peptide ELISA (coated 20mer) [Figure 1]
T11 construct: also called MAGEA3 aa 171-190
T11 peptide: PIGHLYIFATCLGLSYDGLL
Experimental: as §1, §2

MAGEA3 peptide no 9 = molecular target: T12, MAGEA3 peptide no 9; experiment: peptide ELISA (coated 20mer) [Figure 1]
T12 construct: also called MAGEA3 aa 81-100
T12 peptide: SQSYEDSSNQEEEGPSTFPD
Experimental: as §1, §2

MAGEA3 peptide no 20 = molecular target: T13, MAGEA3 peptide no 20; experiment: peptide ELISA (coated 20mer) [Figure 1]
T13 construct: also called MAGEA3 aa 191-210
T13 peptide: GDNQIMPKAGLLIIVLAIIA
Experimental: as §1, §2

MAGEA3 peptide no 4 = molecular target: T14, MAGEA3 peptide no 4; experiment: peptide ELISA (coated 20mer) [Figure 1]
T14 construct: also called MAGEA3 aa 31-50
T14 peptide: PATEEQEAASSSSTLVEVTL
Experimental: as §1, §2

MAGEA3 peptide no 12 = molecular target: T15, MAGEA3 peptide no 12; experiment: peptide ELISA (coated 20mer) [Figure 1]
T15 construct: also called MAGEA3 aa 111-130
T15 peptide: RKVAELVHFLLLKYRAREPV
Experimental: as §1, §2

MAGEA3 peptide no 17 = molecular target: T16, MAGEA3 peptide no 17; experiment: peptide ELISA (coated 20mer) [Figure 1]
T16 construct: also called MAGEA3 aa 161-180
T16 peptide: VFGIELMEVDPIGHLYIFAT
Experimental: as §1, §2

MAGEA3 peptide no 11 = molecular target: T17, MAGEA3 peptide no 11; experiment: peptide ELISA (coated 20mer) [Figure 1]
T17 construct: also called MAGEA3 aa 101-120
T17 peptide: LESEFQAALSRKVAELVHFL
Experimental: as §1, §2

MAGEA3 peptide no 10 = molecular target: T18, MAGEA3 peptide no 10; experiment: peptide ELISA (coated 20mer) [Figure 1]
T18 construct: also called MAGEA3 aa 91-110
T18 peptide: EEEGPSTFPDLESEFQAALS
Experimental: as §1, §2

MAGEA3 peptide no 27 = molecular target: T19, MAGEA3 peptide no 27; experiment: peptide ELISA (coated 20mer) [Figure 1]
T19 construct: also called MAGEA3 aa 261-280
T19 peptide: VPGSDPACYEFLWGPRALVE
Experimental: as §1, §2

MAGEA3 peptide no 2 = molecular target: T20, MAGEA3 peptide no 2; experiment: peptide ELISA (coated 20mer) [Figure 1]
T20 construct: also called MAGEA3 aa 11-30
T20 peptide: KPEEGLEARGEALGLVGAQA
Experimental: as §1, §2

MAGEA3 peptide no 28 = molecular target: T21, MAGEA3 peptide no 28; experiment: peptide ELISA (coated 20mer) [Figure 1]
T21 construct: also called MAGEA3 aa 271-290
T21 peptide: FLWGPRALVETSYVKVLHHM
Experimental: as §1, §2

MAGEA3 peptide no 8 = molecular target: T22, MAGEA3 peptide no 8; experiment: peptide ELISA (coated 20mer) [Figure 1]
T22 construct: also called MAGEA3 aa 71-90
T22 peptide: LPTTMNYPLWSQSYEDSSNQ
Experimental: as §1, §2

| Binder | binding result (MAGEA4) | binding result (MAGEA3 peptide no 13) | binding result (MAGEA3 peptide no 25) | binding result (MAGEA3 peptide no 31) | binding result (MAGEA3 peptide no 24) | binding result (MAGEA3 peptide no 3) | binding result (MAGEA3 peptide no 22) | binding result (MAGEA3 peptide no 1) | binding result (MAGEA3 peptide no 26) | binding result (MAGEA3 peptide no 30) | binding result (MAGEA3 peptide no 18) | binding result (MAGEA3 peptide no 9) | binding result (MAGEA3 peptide no 20) | binding result (MAGEA3 peptide no 4) | binding result (MAGEA3 peptide no 12) | binding result (MAGEA3 peptide no 17) | binding result (MAGEA3 peptide no 11) | binding result (MAGEA3 peptide no 10) | binding result (MAGEA3 peptide no 27) | binding result (MAGEA3 peptide no 2) | also measured |
| --- | --- | --- | --- | --- | --- | --- | --- | --- | --- | --- | --- | --- | --- | --- | --- | --- | --- | --- | --- | --- | --- |
| B1 | no binding | no binding (tested: 1 µg/ml) | no binding (tested: 1 µg/ml) | no binding (tested: 1 µg/ml) | no binding (tested: 1 µg/ml) | no binding (tested: 1 µg/ml) | no binding (tested: 1 µg/ml) | no binding (tested: 1 µg/ml) | no binding (tested: 1 µg/ml) | no binding (tested: 1 µg/ml) | no binding (tested: 1 µg/ml) | no binding (tested: 1 µg/ml) | no binding (tested: 1 µg/ml) | no binding (tested: 1 µg/ml) | no binding (tested: 1 µg/ml) | no binding (tested: 1 µg/ml) | no binding (tested: 1 µg/ml) | no binding (tested: 1 µg/ml) | no binding (tested: 1 µg/ml) | no binding (tested: 1 µg/ml) | binding result (MAGEA3 peptide no 28): no binding (tested: 1 µg/ml); binding result (MAGEA3 peptide no 8): no binding (tested: 1 µg/ml) |
| B2 | no binding | no binding (tested: 1 µg/ml) | no binding (tested: 1 µg/ml) | no binding (tested: 1 µg/ml) | no binding (tested: 1 µg/ml) | no binding (tested: 1 µg/ml) | no binding (tested: 1 µg/ml) | no binding (tested: 1 µg/ml) | no binding (tested: 1 µg/ml) | no binding (tested: 1 µg/ml) | no binding (tested: 1 µg/ml) | no binding (tested: 1 µg/ml) | no binding (tested: 1 µg/ml) | no binding (tested: 1 µg/ml) | no binding (tested: 1 µg/ml) | no binding (tested: 1 µg/ml) | no binding (tested: 1 µg/ml) | no binding (tested: 1 µg/ml) | no binding (tested: 1 µg/ml) | no binding (tested: 1 µg/ml) | binding result (MAGEA3 peptide no 28): no binding (tested: 1 µg/ml); binding result (MAGEA3 peptide no 8): no binding (tested: 1 µg/ml) |
| B3 | no binding |  |  |  |  |  |  |  |  |  |  |  |  |  |  |  |  |  |  |  |  |
